# In article PMC6755812:
# Tests used:
# [1] = biological target: bovine pancreas insulin (bovine)
# [2] = biological target: Escherichia coli thioredoxin reductase (E. coli) (UniProt P0A9P4)
# [3] = biological target: Escherichia coli peptide methionine sulfoxide reductase A (E. coli) (UniProt P0A744)
# Cys32 = Cys32 (UniProt position 33, FWAEWCGPCKM); conditions: reduced (dithiol) form implied; not stated explicitly; cited from earlier work
# Sequence of Escherichia coli thioredoxin reductase (E. coli) (P0A9P4 2-321): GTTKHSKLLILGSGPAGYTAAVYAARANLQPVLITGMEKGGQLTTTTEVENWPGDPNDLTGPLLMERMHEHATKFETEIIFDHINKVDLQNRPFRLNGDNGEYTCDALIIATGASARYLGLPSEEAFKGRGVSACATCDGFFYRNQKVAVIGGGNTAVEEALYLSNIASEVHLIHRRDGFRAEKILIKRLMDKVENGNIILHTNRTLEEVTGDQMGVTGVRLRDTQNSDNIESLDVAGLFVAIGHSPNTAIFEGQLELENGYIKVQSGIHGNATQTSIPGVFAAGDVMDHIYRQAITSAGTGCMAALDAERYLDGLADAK
# Sequence of Escherichia coli thioredoxin (P0AA25 2-109): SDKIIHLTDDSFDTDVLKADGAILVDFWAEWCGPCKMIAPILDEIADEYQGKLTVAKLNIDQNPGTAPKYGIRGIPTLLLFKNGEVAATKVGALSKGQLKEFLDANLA
# Sequence of Escherichia coli peptide methionine sulfoxide reductase A (E. coli) (P0A744 2-212): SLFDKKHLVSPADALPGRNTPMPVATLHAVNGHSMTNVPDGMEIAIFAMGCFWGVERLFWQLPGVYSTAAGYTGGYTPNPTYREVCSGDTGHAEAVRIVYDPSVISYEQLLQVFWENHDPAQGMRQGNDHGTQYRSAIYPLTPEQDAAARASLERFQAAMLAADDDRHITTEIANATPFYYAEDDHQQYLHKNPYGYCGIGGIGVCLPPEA
Substance,"Specific insulin reductase activity (0.13 mM insulin, 1 mM DTT, 0.5-2.0 μM Trx, onset of aggregation at OD650, pH 7.0, 25 °C) [1]","Catalytic activity of S-MetO reduction by NADPH (Vi/[Trx]) in the reconstituted NADPH/TrxR/Trx/MsrA chain (4.5 μM TrxR, 4.5 μM MsrA, 0.1-1.0 μM Trx, pH 7.0, 25 °C) [2]","kcat/Km: activity as substrate of TrxR (ecTrxR-catalysed reduction of Trx by NADPH, DTNB-coupled, 0.04 μM TrxR, 0.1-300 μM Trx, pH 7.0, 25 °C) [2]","k1: rate constant of Trx–MsrA mixed disulfide formation (stopped-flow fluorescence, 1 μM oxidized MsrA, 5-100 μM reduced Trx, pH 7.0, 25 °C) [3]","k2: rate constant of mixed disulfide dissociation to reduced MsrA and oxidized Trx (stopped-flow fluorescence, pH 7.0, 25 °C) [3]",pKa (Cys32)
Archaeal–Eukaryotic Common Ancestor thioredoxin (enzyme),0.0452 min^−1 μM^−1,14.6 min^−1,130000 M^−1 s^−1,716000 M^−1 s^−1,1.75 s^−1,
Escherichia coli thioredoxin (from UniProt P0AA25 2-109) (enzyme),0.0512 min^−1 μM^−1,66.9 min^−1,8.81e+06 M^−1 s^−1,1.01e+06 M^−1 s^−1,2.89 s^−1,
Last Animalia and Fungi Common Ancestor thioredoxin (enzyme),0.0224 min^−1 μM^−1,,,45000 M^−1 s^−1,3.47 s^−1,
Last Archaeal Common Ancestor thioredoxin (enzyme),0.0532 min^−1 μM^−1,9.13 min^−1,118000 M^−1 s^−1,518000 M^−1 s^−1,1.54 s^−1,
Last Bacterial Common Ancestor thioredoxin (enzyme),0.0781 min^−1 μM^−1,11.7 min^−1,117000 M^−1 s^−1,498000 M^−1 s^−1,2.69 s^−1,
"Last Common Ancestor of the Cyanobacterial, Deinococcus, and Thermus group thioredoxin (enzyme)",0.104 min^−1 μM^−1,36.9 min^−1,7.6e+06 M^−1 s^−1,436000 M^−1 s^−1,2.93 s^−1,
Last Eukaryotic Common Ancestor thioredoxin (enzyme),0.0738 min^−1 μM^−1,0.29 min^−1,,40700 M^−1 s^−1,3.51 s^−1,
Last γ-Proteobacteria Common Ancestor thioredoxin (enzyme),0.0645 min^−1 μM^−1,25.8 min^−1,718000 M^−1 s^−1,369000 M^−1 s^−1,1.65 s^−1,
Thioredoxin 1 (ecTrx) (Escherichia coli),,,,,,7.1
